{
  "source": "the supplement of paper PMC6755084",
  "data": [
    {"system": "F1*sub RNA substrate (template-directed ligation)", "test": "fraction ligated after 30 min (ligated reads / total reads); higher = more ligase activity; sequences stand for … in GAGACCGCAACTGAAAAGTTGT…AGTTCTGCACGTAGAAGCAAAAGGC", "settings": "42 °C", "summary_of_the_method": "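Ligase ribozyme variants were made from oligo-pool templates by PCR amplification, T7 transcription and gel purification. After gel separation, ligated and unligated bands were reverse transcribed with barcoded primers and sequenced on a MiSeq, with core bases filtered at quality ≥20. The fraction ligated for each variant was the number of ligated reads divided by total reads.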", "values": [
      {"sequence": "ATCACTTGTCGTAAACACTTTGATGGGTTGA [3d215]", "fraction ligated": 0.521},
      {"sequence": "TATCAGTCGTAAGACACTTTGGATGGGTTGA [3d1121]", "fraction ligated": 0.764},
      {"sequence": "TATCACTTGTCGTAGACCTTTGGTGGGTTGA [3d2023]", "fraction ligated": 0.234},
      {"sequence": "ATCCTTGTCGTAAGACACTTTGGATGGGTTG [3d85]", "fraction ligated": 0.716},
      {"sequence": "TATCCTTGTCGTAAGACACTTTGGTGGGTTA [3d1112]", "fraction ligated": 0.0152},
      {"sequence": "TATCACTTGTCGTAAGACCTTTGATGGGTTG [3d2195]", "fraction ligated": 0.513},
      {"sequence": "TAACTTGTCGTAAGACCTTTGGATGGGTTGA [3d519]", "fraction ligated": 0.196},
      {"sequence": "TATCATTGCGTAAGACACTTTGGATGGGTTA [3d1170]", "fraction ligated": 0.447},
      {"sequence": "TATCACTTGTCGTAAGCCTTGGATGGGTTGA [3d2114]", "fraction ligated": 0.778},
      {"sequence": "ATCACTTGTCGTAAACACTTTGGATGGGTTA [3d219]", "fraction ligated": 0.54},
      {"sequence": "TATCACTTGTCGTAAGACACTTTGGTGGTTA [3d2273]", "fraction ligated": 0.0182},
      {"sequence": "TATCACTTGTCTAAACCTTTGGATGGGTTGA [3d1837]", "fraction ligated": 0.789},
      {"sequence": "TATCACTTGTCGTAAGACACTTTGGATGGTTA [2d296]", "fraction ligated": 0.447},
      {"sequence": "TATCCTTGTGTAAGACACTTTGGATGGGTTA [3d1013]", "fraction ligated": 0.406},
      {"sequence": "TATCACTTGTCGAAGACACTTTGTGGGTTGA [3d1965]", "fraction ligated": 0.0368},
      {"sequence": "TATCACTTTCGAAACACTTTGGATGGGTTGA [3d1494]", "fraction ligated": 0.795},
      {"sequence": "TATACTTGTCGAAGACACTTTGATGGGTTGA [3d864]", "fraction ligated": 0.755},
      {"sequence": "TACATTGTCGTAAGACACTTGGATGGGTTGA [3d559]", "fraction ligated": 0.19},
      {"sequence": "TATCACTTGTCGAAGACATTTGGATGGGTTG [3d1956]", "fraction ligated": 0.801},
      {"sequence": "TATCACTGTCGTAAACACTTGGATGGGTTGA [3d1401]", "fraction ligated": 0.794},
      {"sequence": "TATCACTTGTCGAAGCCTTTGGATGGGTTGA [3d1926]", "fraction ligated": 0.757},
      {"sequence": "TAACTTGTCGTAAGACATTTGGATGGGTTGA [3d520]", "fraction ligated": 0.38},
      {"sequence": "TTCACTTGCGTAAGACACTTTGGTGGGTTGA [3d382]", "fraction ligated": 0.00525},
      {"sequence": "ATCATTGTCGTAAGACATTTGGATGGGTTGA [3d97]", "fraction ligated": 0.729},
      {"sequence": "TACACTTGCGTAGACACTTTGGATGGGTTGA [3d604]", "fraction ligated": 0.0967},
      {"sequence": "TATCACTTGTCGTAAGAACTTTGGAGGGTTA [3d2177]", "fraction ligated": 0.075},
      {"sequence": "TACACTGTCGTAAGACACTTTGGATGGGTTG [3d584]", "fraction ligated": 0.321},
      {"sequence": "TATACTTGTCGTAAGACACTTGGATGGGTTGA [2d83]", "fraction ligated": 0.785},
      {"sequence": "ATCACTTTCGAAGACACTTTGGATGGGTTGA [3d126]", "fraction ligated": 0.698},
      {"sequence": "TATCACTTGTCTAAGCACTTTGGAGGGTTGA [3d1852]", "fraction ligated": 0.128},
      {"sequence": "TATCACTTTCGTAAACCTTTGGATGGGTTGA [3d1520]", "fraction ligated": 0.788},
      {"sequence": "TTCACTTGTGTAAGACACTTTGGATGGGTTA [3d400]", "fraction ligated": 0.132},
      {"sequence": "TACACTTGTCGTAAGACCTTTGATGGGTTGA [3d701]", "fraction ligated": 0.0781},
      {"sequence": "TATCACTTGTCGTAAGCACTTGGATGGGTTGA [2d247]", "fraction ligated": 0.756},
      {"sequence": "TATCATTGTCGTAAGAACTTTGATGGGTTGA [3d1249]", "fraction ligated": 0.545},
      {"sequence": "TATCACTTGCGTAAGCACTTGGATGGGTTGA [3d1652]", "fraction ligated": 0.792},
      {"sequence": "TTCACTTGTCGTAAGACACTTTGGATGGGTTA [2d45]", "fraction ligated": 0.619},
      {"sequence": "TATACTTGTGTAAGACATTTGGATGGGTTGA [3d835]", "fraction ligated": 0.764},
      {"sequence": "TATCCTTGTCGTAAGACACTTTGGATGGGTTGA [1d5]", "fraction ligated": 0.789},
      {"sequence": "TATCACTTGTCGTAAGCCTTTGGAGGGTTGA [3d2117]", "fraction ligated": 0.252},
      {"sequence": "TATCACTTTCGTAAGCACTTTGGATGGGTTG [3d1538]", "fraction ligated": 0.764},
      {"sequence": "TACACTTGTCGTAAGCACTTTGGTGGGTTGA [3d687]", "fraction ligated": 0.114},
      {"sequence": "TATCACTGTCGTAAGACCTTTGGTGGGTTGA [3d1428]", "fraction ligated": 0.441},
      {"sequence": "TATCACTTGTCGTAAGAACTTTGGATGGGTTA [2d260]", "fraction ligated": 0.799},
      {"sequence": "ACACTTGTCGTAAGACACTTTGGTGGGTTGA [3d41]", "fraction ligated": 0.0656},
      {"sequence": "TACACTTGCGTAAGACACTTTGGATGGGTTGA [2d52]", "fraction ligated": 0.115},
      {"sequence": "TATCACTTTCGTAGAACTTTGGATGGGTTGA [3d1509]", "fraction ligated": 0.875},
      {"sequence": "TATCACTGTCGTAAGAACTTTGATGGGTTGA [3d1420]", "fraction ligated": 0.652},
      {"sequence": "TATCATTGTCTAAGACACTTTGGAGGGTTGA [3d1197]", "fraction ligated": 0.0716},
      {"sequence": "TATCACTGTCGAAGACACTTTGATGGGTTGA [3d1379]", "fraction ligated": 0.75},
      {"sequence": "TACACTTGTGTAAGACACTTTGGATGGGTTGA [2d53]", "fraction ligated": 0.243},
      {"sequence": "TATCACTTGCGTAAACACTTTGGTGGGTTGA [3d1644]", "fraction ligated": 0.0539},
      {"sequence": "ATCACTTGTCGTAAGACATTTGGAGGGTTGA [3d249]", "fraction ligated": 0.0168},
      {"sequence": "TTCACTTGTGAAGACACTTTGGATGGGTTGA [3d388]", "fraction ligated": 0.767},
      {"sequence": "ATCCTTGTCGTAAGACACTTTGGATGGGTTGA [2d4]", "fraction ligated": 0.744},
      {"sequence": "TATCACTTGTTAAGACACTTTGGATGGTTGA [3d1715]", "fraction ligated": 0.348}
    ]}
  ]
}
